Test results from patent US8642284B1, “Methods for identifying agents that alter NAD-dependent deacetylation activity of a SIR2 protein” (Massachusetts Institute of Technology, priority 1999, dated 2014).

Test system: histone H2B
Experiment: ADP-ribosylation activity of wild type and mutant recombinant mSir2α proteins on histones
Assay type: biochemical, calf
Conditions: 10 μg recombinant protein; H2B radioactivity, wild type = 100%
Protocol: Site-directed mutagenesis of mSIR2α core domain was performed with the GeneEditor™ system (Promega, Madison, Wis.) according to the procedure provided by the manufacturer. The mutant recombinant proteins were prepared in the same way as described above.
The typical reaction was performed in 50 or 100 μl of the buffer containing 5 mM Tris-HCl [pH8.0 or 9.0], 4 mM MgCl2, 0.2 mM DTT, 1 μM cold β-NAD^+ (SIGMA®) and 8 μCi nicotinamide adenine dinucleotide 5′[α-^32P]triphosphate (NAD) as a donor of ADP-ribose (˜1000 Ci/mmol, Amersham Pharmacia Biotech). To check the sensitivity to poly- or mono-ADP-ribosylation inhibitors, 3-aminobenzamide (ICN Pharmaceuticals, CA), benzamide, novobiocin and coumermycin A1 (SIGMA®) were added to the reactions prior to adding Sir2 proteins, respectively. The wild type or mutant recombinant proteins (0.5-1 μg for ySir2p and 10 μg of mSir2α) were added with 4 μg of each histone purchased from Roche Molecular Biochemicals (Indianapolis, Ind.). For the peptide experiments, 5-10 μg of unacetylated or acetylated N-terminal tail peptides (amino acids 1-20) of H3 and H4 purchased from Upstate Biotechnology™ (Lake Placid, N.Y.) were used as substrates of the yeast and mouse Sir2 recombinant proteins.
To analyze histone modification, 25 μl of 100% trichloroacetic acid (TCA) solution was mixed to the reaction mixture and left on ice for 15 min. The protein precipitates were centrifuged at 4° C. and washed with 5 or 20% TCA solution twice. The pellets were dissolved in 15 μl of Leammli's sample buffer and boiled for 1.5 min. The proteins were electrophoresed in a 10-20% gradient SDS-PAGE gel. The gel was stained with COOMASSIE® Brilliant Blue R-250 (GibcoBRL Life Technologies™, Frederick, Md.) to check equal loading of histones, dried, and exposed to KODAK® X-OMAT film.
Aliquots of recombinant protein (10 μg) of the wild type recombinant mSir2α (WT), the pET control pET, and the mutant proteins (G253A, G255A, S257A, I262A, F265A, R266A, G270A, P285A, T336A, H355A) were incubated with H2B or H3. […] All of the mutations of highly conserved residues dramatically affected the mono-ADP-ribosylation activity of mSir2α (FIG. 6B). The results were similar using H2B or H3.
The radioactivity of H2B modified by the wild type is assigned to 100% and other data were normalized according to the wild type activity and blots quantitated by Phosphorimaging. The averages and the standard deviations were calculated from two independent experiments. In the core domain of ySir2p, mutations on highly conserved residues also affected the mono-ADP-ribosylation activity. Therefore, the core domain of Sir2 proteins contain the catalytic activity of mono-ADP-ribosylation and the evolutionarily conserved residues in the core domain are essential for this activity.

Molecule	mono-ADP-ribosylation activity compared to the wild type activity
P285A: recombinant mSir2α core domain mutant, residue changed to alanine (protein, left off: small tags and cut ends, recombinant mSir2α core domain mutant, residue changed to alanine) MADEVALALQAAGSPSAAAAMEAASQPADEPLRKRPRRDGPGLGRSPGEPSAAVAPAAAGCEAASAAAPAALWREAAGAAASAEREAPATAVAGDGDNGSGLRREPRAADDFDDDEGEEEDEAAAAAAAAAIGYRDNLLLTDGLLTNGFHSCESDDDDRTSHASSSDWTPRPRIGPYTFVQQHLMIGTDPRTILKDLLPETIPPPELDDMTLWQIVINILSEPPKRKKRKDINTIEDAVKLLQECKKIIVLTGAGVSVSCGIPDFRSRDGIYARLAVDFPDLPDAQAMFDIEYFRKDPRPFFKFAKEIYPGQFQPSLCHKFIALSDKEGKLLRNYTQNIDTLEQVAGIQRILQCHGSFATASCLICKYKVDCEAVRGDIFNQVVPRCPRCPADEPLAIMKPEIVFFGENLPEQFHRAMKYDKDEVDLLIVIGSSLKVRPVALIPSSIPHEVPQILINREPLPHLHFDVELLGDCDVIINELCHRLGGEYAKLCCNPVKLSEITEKPPRPQKELVHLSELPPTPLHISEDSSSPERTVPQDSSVIATLVDQATNNNVNDLEVSESSCVEEKPQEVQTSRNVENINVENPDFKAVGSSTADKNERTSVAETVRKCWPNRLAKEQISKRLEGNQYLFVPPNRYIFHGAEVYSDSEDDVLSSSSCGSNSDSGTCQSPSLEEPLEDESEIEEFYNGLEDDTERPECAGGSGFGADGGDQEVVNEAIATRQELTDVNYPSDKS	5%
G253A: recombinant mSir2α core domain mutant, glycine 253 changed to alanine (protein, left off: small tags and cut ends, recombinant mSir2α core domain mutant, glycine 253 changed to alanine) MADEVALALQAAGSPSAAAAMEAASQPADEPLRKRPRRDGPGLGRSPGEPSAAVAPAAAGCEAASAAAPAALWREAAGAAASAEREAPATAVAGDGDNGSGLRREPRAADDFDDDEGEEEDEAAAAAAAAAIGYRDNLLLTDGLLTNGFHSCESDDDDRTSHASSSDWTPRPRIGPYTFVQQHLMIGTDPRTILKDLLPETIPPPELDDMTLWQIVINILSEPPKRKKRKDINTIEDAVKLLQECKKIIVLTAAGVSVSCGIPDFRSRDGIYARLAVDFPDLPDPQAMFDIEYFRKDPRPFFKFAKEIYPGQFQPSLCHKFIALSDKEGKLLRNYTQNIDTLEQVAGIQRILQCHGSFATASCLICKYKVDCEAVRGDIFNQVVPRCPRCPADEPLAIMKPEIVFFGENLPEQFHRAMKYDKDEVDLLIVIGSSLKVRPVALIPSSIPHEVPQILINREPLPHLHFDVELLGDCDVIINELCHRLGGEYAKLCCNPVKLSEITEKPPRPQKELVHLSELPPTPLHISEDSSSPERTVPQDSSVIATLVDQATNNNVNDLEVSESSCVEEKPQEVQTSRNVENINVENPDFKAVGSSTADKNERTSVAETVRKCWPNRLAKEQISKRLEGNQYLFVPPNRYIFHGAEVYSDSEDDVLSSSSCGSNSDSGTCQSPSLEEPLEDESEIEEFYNGLEDDTERPECAGGSGFGADGGDQEVVNEAIATRQELTDVNYPSDKS	completely abolished the activity
S257A: recombinant mSir2α core domain mutant, residue changed to alanine (protein, left off: small tags and cut ends, recombinant mSir2α core domain mutant, residue changed to alanine) MADEVALALQAAGSPSAAAAMEAASQPADEPLRKRPRRDGPGLGRSPGEPSAAVAPAAAGCEAASAAAPAALWREAAGAAASAEREAPATAVAGDGDNGSGLRREPRAADDFDDDEGEEEDEAAAAAAAAAIGYRDNLLLTDGLLTNGFHSCESDDDDRTSHASSSDWTPRPRIGPYTFVQQHLMIGTDPRTILKDLLPETIPPPELDDMTLWQIVINILSEPPKRKKRKDINTIEDAVKLLQECKKIIVLTGAGVAVSCGIPDFRSRDGIYARLAVDFPDLPDPQAMFDIEYFRKDPRPFFKFAKEIYPGQFQPSLCHKFIALSDKEGKLLRNYTQNIDTLEQVAGIQRILQCHGSFATASCLICKYKVDCEAVRGDIFNQVVPRCPRCPADEPLAIMKPEIVFFGENLPEQFHRAMKYDKDEVDLLIVIGSSLKVRPVALIPSSIPHEVPQILINREPLPHLHFDVELLGDCDVIINELCHRLGGEYAKLCCNPVKLSEITEKPPRPQKELVHLSELPPTPLHISEDSSSPERTVPQDSSVIATLVDQATNNNVNDLEVSESSCVEEKPQEVQTSRNVENINVENPDFKAVGSSTADKNERTSVAETVRKCWPNRLAKEQISKRLEGNQYLFVPPNRYIFHGAEVYSDSEDDVLSSSSCGSNSDSGTCQSPSLEEPLEDESEIEEFYNGLEDDTERPECAGGSGFGADGGDQEVVNEAIATRQELTDVNYPSDKS	completely abolished the activity
G255A: recombinant mSir2α core domain mutant, residue changed to alanine (protein, left off: small tags and cut ends, recombinant mSir2α core domain mutant, residue changed to alanine) MADEVALALQAAGSPSAAAAMEAASQPADEPLRKRPRRDGPGLGRSPGEPSAAVAPAAAGCEAASAAAPAALWREAAGAAASAEREAPATAVAGDGDNGSGLRREPRAADDFDDDEGEEEDEAAAAAAAAAIGYRDNLLLTDGLLTNGFHSCESDDDDRTSHASSSDWTPRPRIGPYTFVQQHLMIGTDPRTILKDLLPETIPPPELDDMTLWQIVINILSEPPKRKKRKDINTIEDAVKLLQECKKIIVLTGAAVSVSCGIPDFRSRDGIYARLAVDFPDLPDPQAMFDIEYFRKDPRPFFKFAKEIYPGQFQPSLCHKFIALSDKEGKLLRNYTQNIDTLEQVAGIQRILQCHGSFATASCLICKYKVDCEAVRGDIFNQVVPRCPRCPADEPLAIMKPEIVFFGENLPEQFHRAMKYDKDEVDLLIVIGSSLKVRPVALIPSSIPHEVPQILINREPLPHLHFDVELLGDCDVIINELCHRLGGEYAKLCCNPVKLSEITEKPPRPQKELVHLSELPPTPLHISEDSSSPERTVPQDSSVIATLVDQATNNNVNDLEVSESSCVEEKPQEVQTSRNVENINVENPDFKAVGSSTADKNERTSVAETVRKCWPNRLAKEQISKRLEGNQYLFVPPNRYIFHGAEVYSDSEDDVLSSSSCGSNSDSGTCQSPSLEEPLEDESEIEEFYNGLEDDTERPECAGGSGFGADGGDQEVVNEAIATRQELTDVNYPSDKS	completely abolished the activity
I262A: recombinant mSir2α core domain mutant, residue changed to alanine (protein, left off: small tags and cut ends, recombinant mSir2α core domain mutant, residue changed to alanine) MADEVALALQAAGSPSAAAAMEAASQPADEPLRKRPRRDGPGLGRSPGEPSAAVAPAAAGCEAASAAAPAALWREAAGAAASAEREAPATAVAGDGDNGSGLRREPRAADDFDDDEGEEEDEAAAAAAAAAIGYRDNLLLTDGLLTNGFHSCESDDDDRTSHASSSDWTPRPRIGPYTFVQQHLMIGTDPRTILKDLLPETIPPPELDDMTLWQIVINILSEPPKRKKRKDINTIEDAVKLLQECKKIIVLTGAGVSVSCGAPDFRSRDGIYARLAVDFPDLPDPQAMFDIEYFRKDPRPFFKFAKEIYPGQFQPSLCHKFIALSDKEGKLLRNYTQNIDTLEQVAGIQRILQCHGSFATASCLICKYKVDCEAVRGDIFNQVVPRCPRCPADEPLAIMKPEIVFFGENLPEQFHRAMKYDKDEVDLLIVIGSSLKVRPVALIPSSIPHEVPQILINREPLPHLHFDVELLGDCDVIINELCHRLGGEYAKLCCNPVKLSEITEKPPRPQKELVHLSELPPTPLHISEDSSSPERTVPQDSSVIATLVDQATNNNVNDLEVSESSCVEEKPQEVQTSRNVENINVENPDFKAVGSSTADKNERTSVAETVRKCWPNRLAKEQISKRLEGNQYLFVPPNRYIFHGAEVYSDSEDDVLSSSSCGSNSDSGTCQSPSLEEPLEDESEIEEFYNGLEDDTERPECAGGSGFGADGGDQEVVNEAIATRQELTDVNYPSDKS	completely abolished the activity
